Patent US20220363770A1 (Amgen, published 2022)

B1: anti-CGRP receptor variant 06, yeast-displayed Fab (Fab, V domains shown)
VH: QVQLVESGGGVVQPGRSLRLSCAASGFTFSSFGMHWVRQAPGKGLEWVAVISFDGSIKYSVDSVKGRFTISRDNSKNTLFLQMNSLRAEDTAVYYCARDRLNYYESSGYYHYKYYGMAVWGQGTTVTVSS
VL: QSVLTQPPSVSAAPGQKVTISCSGSYSNIGRKSVSWYQQLPGTAPKLLIYDNNKRPSGIPDRFSGSKSGTSATLGITGLQTGDEADYYCGTWDSRLSAVVFGGGTKLTVLG
notes: also called Variant Ab ID 06
B2: 4E4.2 parental Fab, yeast-displayed (Fab, V domains shown)
VH: QVQLVESGGGVVQPGRSLRLSCAASGFTFSSFGMHWVRQAPGKGLEWVAVISFDGSIKYSVDSVKGRFTISRDNSKNTLFLQMNSLRAEDTAVYYCARDRLNYYESSGYYHYKYYGMAVWGQGTTVTVSS
VL: QSVLTQPPSVSAAPGQKVTISCSGSSSNIGNNYVSWYQQLPGTAPKLLIYDNNKRPSGIPDRFSGSKSGTSATLGITGLQTGDEADYYCGTWDSRLSAVVFGGGTKLTVLG
notes: also called parental 4E4.2 Fab
B3: anti-CGRP receptor variant 12, yeast-displayed Fab (Fab, V domains shown)
VH: QVQLVESGGGVVQPGRSLRLSCAASGFTFSSFGMHWVRQAPGKGLEWVAVISFDGSIKYSVDSVKGRFTISRDNSKNTLFLQMNSLRAEDTAVYYCARDRLNYYESSGYYHYKYYGMAVWGQGTTVTVSS
VL: QSVLTQPPSVSAAPGQKVTISCSGSRSNIGRYSVSWYQQLPGTAPKLLIYDNRYRAQGIPDRFSGSKSGTSATLGITGLQTGDEADYYCGTWDWATTSVVFGGGTKLTVLG
notes: also called Variant Ab ID 12
B4: anti-CGRP receptor variant 04, yeast-displayed Fab (Fab, V domains shown)
VH: QVQLVESGGGVVQPGRSLRLSCAASGFTFSSFGMHWVRQAPGKGLEWVAVISFDGSIKYSVDSVKGRFTISRDNSKNTLFLQMNSLRAEDTAVYYCARDRLNYYRSFGYYGYHYYGMAVWGQGTTVTVSS
VL: QSVLTQPPSVSAAPGQKVTISCSGSSSNIGNNYVSWYQQLPGTAPKLLIYDNNKRPSGIPDRFSGSKSGTSATLGITGLQTGDEADYYCGTWDSRLSAVVFGGGTKLTVLG
notes: also called Variant Ab ID 04
B5: anti-CGRP receptor variant 01, yeast-displayed Fab (Fab, V domains shown)
VH: QVQLVESGGGVVQPGRSLRLSCAASGFTFSSFGMHWVRQAPGKGLEWVAVISFDGSIKYSVDSVKGRFTISRDNSKNTLFLQMNSLRAEDTAVYYCARDRLNYYESSGYYHYKYYGMAVWGQGTTVTVSS
VL: QSVLTQPPSVSAAPGQKVTISCSGSYSNIGRYSVSWYQQLPGTAPKLLIYDNNKRPSGIPDRFSGSKSGTSATLGITGLQTGDEADYYCGTWDSRLSAVVFGGGTKLTVLG
notes: also called Variant Ab ID 01
B6: anti-CGRP receptor variant 02, yeast-displayed Fab (Fab, V domains shown)
VH: QVQLVESGGGVVQPGRSLRLSCAASGFTFSSFGMHWVRQAPGKGLEWVAVISFDGSIKYSVDSVKGRFTISRDNSKNTLFLQMNSLRAEDTAVYYCARDRLNYYESSGYYHYKYYGMAVWGQGTTVTVSS
VL: QSVLTQPPSVSAAPGQKVTISCSGSRSNIGIKAVSWYQQLPGTAPKLLIYDNNKRPSGIPDRFSGSKSGTSATLGITGLQTGDEADYYCGTWDSRLSAVVFGGGTKLTVLG
notes: also called Variant Ab ID 02
B7: anti-CGRP receptor variant 05, yeast-displayed Fab (Fab, V domains shown)
VH: QVQLVESGGGVVQPGRSLRLSCAASGFTFSSFGMHWVRQAPGKGLEWVAVISFDGSIKYSVDSVKGRFTISRDNSKNTLFLQMNSLRAEDTAVYYCARDRLNYYESSGYYHYKYYGMAVWGQGTTVTVSS
VL: QSVLTQPPSVSAAPGQKVTISCSGSFSNIGRSTVSWYQQLPGTAPKLLIYDNRWRAGGIPDRFSGSKSGTSATLGITGLQTGDEADYYCGTWDYQWKAVVFGGGTKLTVLG
notes: also called Variant Ab ID 05
B8: anti-CGRP receptor variant 08, yeast-displayed Fab (Fab, V domains shown)
VH: QVQLVESGGGVVQPGRSLRLSCAASGFTFSSFGMHWVRQAPGKGLEWVAVISFDGSIKYSVDSVKGRFTISRDNSKNTLFLQMNSLRAEDTAVYYCARDRLNYYESSGYYHYKYYGMAVWGQGTTVTVSS
VL: QSVLTQPPSVSAAPGQKVTISCSGSYSNIGWWPVSWYQQLPGTAPKLLIYDNNKRPSGIPDRFSGSKSGTSATLGITGLQTGDEADYYCGTWDSRLSAVVFGGGTKLTVLG
notes: also called Variant Ab ID 08
B9: anti-CGRP receptor variant 07, yeast-displayed Fab (Fab, V domains shown)
VH: QVQLVESGGGVVQPGRSLRLSCAASGFYFMTYGMHWVRQAPGKGLEWVAVISFDGSIKYSVDSVKGRFTISRDNSKNTLFLQMNSLRAEDTAVYYCARDRLNYYESSGYYHYKYYGMAVWGQGTTVTVSS
VL: QSVLTQPPSVSAAPGQKVTISCSGSSSNIGNNYVSWYQQLPGTAPKLLIYDNNKRPSGIPDRFSGSKSGTSATLGITGLQTGDEADYYCGTWDSRLSAVVFGGGTKLTVLG
notes: also called Variant Ab ID 07

Columns and labels:
[1] = molecular target: T1, human PAC1 receptor extracellular domain (ECD) (human, UniProt P41586 24-153); assay: yeast-displayed Fab, FACS, 10 nM PAC1 receptor ECD
T1 construct: also called PAC1 receptor ECD; PAC1 ECD
T1 sequence: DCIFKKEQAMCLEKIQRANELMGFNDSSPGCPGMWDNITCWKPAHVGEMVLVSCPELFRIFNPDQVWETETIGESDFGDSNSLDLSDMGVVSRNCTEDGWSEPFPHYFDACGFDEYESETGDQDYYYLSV

[2] = molecular target: T2, human CGRP receptor extracellular domain (ECD) (human, UniProt Q16602 23-138; O60894 27-117); assay: yeast-displayed Fab, FACS, 1 nM human CGRP receptor ECD
T2 construct: also called CGRP receptor ECD; human CGRP receptor ECD

[3] = molecular target: T2, human CGRP receptor extracellular …; assay: yeast-displayed Fab, FACS, 10 nM human CGRP receptor ECD
[4] = molecular target: T3, cynomolgus monkey CGRP receptor (cynomolgus monkey, UniProt A0A2K5VQ71 34-472); assay: yeast-displayed Fab, FACS, detergent-solubilized lysate of cynomolgus CGRP receptor/HEK cells vs blank cells
T3 construct: whole, on cells; Presented as detergent-solubilized lysate of HEK cells expressing the cynomolgus receptor; also called Cyno CGRP Receptor; Cynomolgus Monkey CGRP Receptor/HEK detergent-solubilized cell lysate

[5] = molecular target: T4, human CGRP receptor (human CRLR / human RAMP1 heterodimer) (human, UniProt Q16602 23-461; O60894 27-148); assay: yeast-displayed Fab, FACS, detergent-solubilized lysate of human CGRP receptor-expressing cells vs blank cells
T4 construct: Full-length receptor: endogenous on SK-N-MC (HTB-10) cells in the cAMP assay; also called hCGRP receptor on SK-N-MC (HTB-10) cells; Human CGRP Receptor/AMID detergent-solubilized cell lysate
T4 sequence (Q16602 23-461 limits assumed, chain 1 of 2): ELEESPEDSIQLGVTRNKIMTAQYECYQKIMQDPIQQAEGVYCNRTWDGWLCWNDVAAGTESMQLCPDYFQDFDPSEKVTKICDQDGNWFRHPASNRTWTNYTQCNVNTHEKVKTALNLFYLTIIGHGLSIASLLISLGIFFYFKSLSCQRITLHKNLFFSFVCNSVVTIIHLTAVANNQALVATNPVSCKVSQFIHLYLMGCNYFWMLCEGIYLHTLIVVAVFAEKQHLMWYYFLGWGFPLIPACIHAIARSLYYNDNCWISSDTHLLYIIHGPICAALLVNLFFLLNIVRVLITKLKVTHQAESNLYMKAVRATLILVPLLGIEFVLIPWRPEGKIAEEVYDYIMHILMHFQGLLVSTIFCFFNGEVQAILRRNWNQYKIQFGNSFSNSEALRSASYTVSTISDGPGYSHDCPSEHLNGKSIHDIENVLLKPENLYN
T4 sequence (O60894 27-148 limits assumed, chain 2 of 2): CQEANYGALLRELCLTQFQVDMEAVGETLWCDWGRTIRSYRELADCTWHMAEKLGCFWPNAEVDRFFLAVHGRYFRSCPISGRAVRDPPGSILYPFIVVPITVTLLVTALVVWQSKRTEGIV

T3 sequence (A0A2K5VQ71 entry or part of it): as the sequence (Q16602 23-461 limits assumed, chain 1 of 2) above, with D55N, L431V counted along it
T2 sequence (Q16602 23-138 limits assumed, chain 1 of 2): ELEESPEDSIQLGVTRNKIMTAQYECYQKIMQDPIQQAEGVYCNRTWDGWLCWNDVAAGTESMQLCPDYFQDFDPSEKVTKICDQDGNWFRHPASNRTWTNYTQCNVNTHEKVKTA
T2 sequence (O60894 27-117 limits assumed, chain 2 of 2): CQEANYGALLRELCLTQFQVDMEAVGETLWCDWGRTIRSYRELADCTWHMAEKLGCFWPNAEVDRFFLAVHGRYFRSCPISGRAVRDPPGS

Mutant vs. 4E4.2 Parent B/D Ratio [1] [fold] | Normalized Binding Signal/Display Signal (B/D) [1] [ratio] | Mutant vs. 4E4.2 Parent B/D Ratio [2] [fold] | Normalized Binding Signal/Display Signal (B/D) [2] [ratio] | Mutant vs. 4E4.2 Parent B/D Ratio [3] [fold] | Normalized Binding Signal/Display Signal (B/D) [3] [ratio] | Cyno CGRP Receptor/Blank Cells Specific Binding [4] [ratio] | Mutant vs. 4E4.2 Parent Specific Binding Ratio [4] [fold] | Human CGRP Receptor/Blank Cells Specific Binding [5] [ratio] | Mutant vs. 4E4.2 Parent Specific Binding Ratio [5] [fold] | Binder
1 | 0.1 | 2.2 | 0.27 | 7.4 | 1.13 | 4.8 | 2.5 | 17.5 | 2.2 | B1
– | – | – | – | – | – | 1.9 | 1 | 8 | 1 | B2
– | – | 2.8 | 0.35 | 9.7 | 1.5 | 10.3 | 5.4 | – | – | B3
1.1 | 0.12 | 1.6 | 0.2 | 3.4 | 0.53 | 3.1 | 1.6 | 9.5 | 1.2 | B4
0.8 | 0.09 | 1.7 | 0.21 | 5.8 | 0.89 | 4.6 | 2.4 | 25.8 | 3.2 | B5
0.9 | 0.1 | 1.4 | 0.17 | 3.8 | 0.58 | 5.3 | 2.8 | 14.2 | 1.8 | B6
– | – | 6.7 | 0.82 | 24.6 | 3.78 | 5.2 | 2.7 | 24.4 | 3.1 | B7
1 | 0.1 | 1.4 | 0.17 | 3.1 | 0.48 | 4.9 | 2.5 | 18 | 2.3 | B8
1.2 | 0.13 | 1.8 | 0.22 | 5.3 | 0.81 | 3.1 | 1.6 | 11.7 | 1.5 | B9
